The Human Domainome abundance scans (Beltran et al. 2025)
± gives the uncertainty stated by the source.

B1: Peripheral plasma membrane protein CASK, residues 488 to 569; numbered along this chain, O14936 (parent)
chain: VRLVQFQKNTDEPMGITLKMNELNHCIVARIMHGGMIHRQGTLHVGDEIREINGISVANQTVEQLQKMLREMRGSITFKIVP

Variants of: B1
Assay: abundance fitness (aPCA) (normalised: wild type 0, dead -1); higher = more abundant; growth selection in yeast, the domain comes from the species named
Details: Homo sapiens

Row | Variant | abundance fitness
1 | Q40G | -0.097 ± 0.023
2 | Q40A | -0.016 ± 0.02
3 | Q40M | -0.055 ± 0.026
4 | Q40L | -0.06 ± 0.022
5 | Q40C | -0.072 ± 0.029
6 | Q40N | -0.007 ± 0.041
7 | Q40F | -0.103 ± 0.041
8 | Q40S | -0.043 ± 0.023
9 | Q40V | -0.065 ± 0.021
10 | Q40H | -0.096 ± 0.041
11 | Q40T | -0.067 ± 0.026
12 | Q40I | -0.05 ± 0.038
13 | Q40E | 0.018 ± 0.024
14 | Q40P | -0.552 ± 0.04
15 | R30W | -0.114 ± 0.034
16 | R30V | -0.163 ± 0.032
17 | R30G | -0.005 ± 0.024
18 | R30L | -0.283 ± 0.035
19 | R30Y | 0.015 ± 0.092
20 | R30D | -0.012 ± 0.063
21 | R30H | 0.037 ± 0.057
22 | R30M | -0.112 ± 0.046
23 | R30I | -0.372 ± 0.087
24 | R30A | 0.008 ± 0.034

Row | Variant | abundance fitness
25 | R30P | -1.11 ± 0.23
26 | R30Q | -0.013 ± 0.045
27 | R30S | -0.007 ± 0.033
28 | R30K | 0.069 ± 0.047
29 | R30F | -0.083 ± 0.1
30 | R30N | 0.012 ± 0.063
31 | R30C | -0.055 ± 0.062
32 | R30E | 0.027 ± 0.036
33 | I27Y | 0.007 ± 0.037
34 | I27C | -0.16 ± 0.029
35 | I27F | -0.08 ± 0.037
36 | I27P | -0.883 ± 0.067
37 | I27Q | -0.106 ± 0.03
38 | I27V | -0.045 ± 0.023
39 | I27A | -0.166 ± 0.025
40 | I27T | -0.021 ± 0.03
41 | I27W | -0.187 ± 0.027
42 | I27E | -0.05 ± 0.03
43 | I27K | -0.175 ± 0.038
44 | I27M | -0.052 ± 0.03
45 | I27D | -1.05 ± 0.1
46 | I27S | -0.17 ± 0.024
47 | I27R | -0.227 ± 0.022
48 | H25E | 0.019 ± 0.027

Row | Variant | abundance fitness
49 | H25C | -0.013 ± 0.031
50 | H25L | -0.064 ± 0.025
51 | H25F | -0.194 ± 0.05
52 | H25I | -0.073 ± 0.047
53 | H25A | -0.016 ± 0.024
54 | H25P | -0.819 ± 0.06
55 | H25Y | -0.102 ± 0.047
56 | H25T | -0.09 ± 0.029
57 | H25W | -0.32 ± 0.031
58 | H25Q | 0.019 ± 0.03
59 | H25R | -0.016 ± 0.021
60 | H25M | -0.019 ± 0.031
61 | H25D | -0.163 ± 0.037
62 | H25N | 0.027 ± 0.036
63 | H25G | -0.046 ± 0.021
64 | H44E | 0.02 ± 0.035
65 | H44L | -0.142 ± 0.025
66 | H44M | -0.024 ± 0.03
67 | H44F | -0.125 ± 0.04
68 | H44C | -0.012 ± 0.033
69 | H44D | -0.021 ± 0.031
70 | H44I | -0.188 ± 0.049
71 | H44A | -0.006 ± 0.023
72 | H44N | -0.029 ± 0.037

Row | Variant | abundance fitness
73 | H44K | 0.007 ± 0.032
74 | H44P | -0.917 ± 0.063
75 | L43D | -1.04 ± 0.11
76 | L43K | -0.99 ± 0.09
77 | L43W | -0.662 ± 0.041
78 | L43G | -0.985 ± 0.043
79 | L43F | 0.052 ± 0.055
80 | L43P | -0.658 ± 0.06
81 | L43V | -0.021 ± 0.024
82 | L43S | -0.755 ± 0.051
83 | L43H | -0.97 ± 0.16
84 | L43E | -0.774 ± 0.049
85 | L43T | -0.76 ± 0.06
86 | L43Q | -1.01 ± 0.1
87 | L43N | -0.906 ± 0.15
88 | L43R | -0.853 ± 0.036
89 | L43C | -0.308 ± 0.038
90 | L43A | -0.722 ± 0.04
91 | L43Y | -0.733 ± 0.11
92 | L43M | -0.021 ± 0.03
93 | G34P | -0.373 ± 0.06
94 | G34K | -0.177 ± 0.064
95 | G34D | -0.032 ± 0.051
96 | G34M | -0.259 ± 0.057

Row | Variant | abundance fitness
97 | G34N | -0.016 ± 0.1
98 | G34Q | -0.151 ± 0.057
99 | G34V | -0.447 ± 0.042
100 | G34R | -0.194 ± 0.035
101 | G34I | -0.478 ± 0.1
102 | G34C | -0.252 ± 0.064
103 | G34H | -0.052 ± 0.085
104 | G34F | -0.385 ± 0.096
105 | G34Y | -0.489 ± 0.14
106 | G34A | -0.247 ± 0.041
107 | G34T | -0.126 ± 0.054
108 | G34L | -0.261 ± 0.042
109 | G41H | -0.07 ± 0.043
110 | G41Q | -0.113 ± 0.034
111 | G41M | -0.233 ± 0.036
112 | G41K | -0.1 ± 0.032
113 | G41T | -0.033 ± 0.03
114 | G41R | -0.127 ± 0.021
115 | G41A | -0.083 ± 0.024
116 | G41I | -0.55 ± 0.069
117 | G41N | -0.072 ± 0.039
118 | G41P | -0.541 ± 0.047
119 | G41W | -0.829 ± 0.048
120 | G41F | -0.618 ± 0.061

Row | Variant | abundance fitness
121 | G41S | -0.098 ± 0.025
122 | G41Y | -0.639 ± 0.08
123 | G41L | -0.424 ± 0.029
124 | G41D | -0.065 ± 0.033
125 | G41V | -0.288 ± 0.025
126 | G41C | -0.137 ± 0.031
127 | G41E | -0.1 ± 0.028
128 | I37A | 0.019 ± 0.025
129 | I37H | -0.294 ± 0.05
130 | I37E | -0.378 ± 0.032
131 | I37L | -0.103 ± 0.025
132 | I37N | -0.391 ± 0.059
133 | I37C | -0.024 ± 0.034
134 | I37T | -0.129 ± 0.029
135 | I37R | -0.531 ± 0.026
136 | I37Q | -0.43 ± 0.045
137 | I37P | -0.42 ± 0.044
138 | I37G | -0.276 ± 0.023
139 | I37F | -0.092 ± 0.048
140 | I37M | -0.021 ± 0.03
141 | I37Y | -0.38 ± 0.056
142 | I37W | -0.333 ± 0.03
143 | I37S | -0.217 ± 0.028
144 | R39S | -0.047 ± 0.026

Row | Variant | abundance fitness
145 | R39N | 0.04 ± 0.037
146 | R39H | -0.118 ± 0.043
147 | R39V | -0.197 ± 0.022
148 | R39I | -0.297 ± 0.04
149 | R39L | -0.138 ± 0.026
150 | R39M | -0.135 ± 0.033
151 | R39T | -0.07 ± 0.03
152 | R39C | -0.156 ± 0.055
153 | R39G | -0.136 ± 0.019
154 | R39E | -0.052 ± 0.026
155 | R39Y | -0.35 ± 0.048
156 | R39P | -0.469 ± 0.04
157 | R39A | -0.035 ± 0.022
158 | R39D | -0.096 ± 0.034
159 | R39Q | -0.024 ± 0.031
160 | R39F | -0.34 ± 0.051
161 | C26L | -0.083 ± 0.026
162 | C26W | -0.031 ± 0.026
163 | C26V | 0.015 ± 0.023
164 | C26I | 0.032 ± 0.05
165 | C26M | -0.076 ± 0.033
166 | C26K | -0.202 ± 0.04
167 | C26A | -0.067 ± 0.025
